Experimental data as given in US20250289897A1 (Eli Lilly, published 2025).
Blank lines part the entries; values can stand above or below the binder they belong to.

Tests used:
[1] = biological target: neonatal Fc receptor (FcRn) on FcRn Affinity Column Gen2 (Roche, Cat #09430857001) (UniProt P55899 24-297; P61769 21-119, limits assumed); test: FcRn-HPLC (Roche FcRn Affinity Column Gen2), peak width at 50% peak height
Procedure: Stock antibody solutions were diluted to 1 mg/mL into 20 mM MES, 140 mM NaCl, pH5.5. […] 20 μμL antibody injections were made followed by 10 minute column wash with 20 mM MES, 140 mM NaCl, pH5.5. Antibodies were then eluted by pH gradient elution into 20 mM Tris, 140 mM NaCl, pH8.8 over 90 minutes. Chromatograms were blank-subtracted to remove baseline drift.

CYNO LEPR-ECD-His [2] = biological target: T1, CYNO LEPR-ECD-His (cynomolgus monkey, UniProt Q9MYL0 22-837 (rhesus entry)); test: SPR (Biacore T200), antibody captured on Protein A/G chip, His-tagged LEPR-ECD as analyte, 1:1 fit; mean n=3, SD 2.0E-9
T1 construct: also called cynomolgus monkey LEPR
T1 sequence: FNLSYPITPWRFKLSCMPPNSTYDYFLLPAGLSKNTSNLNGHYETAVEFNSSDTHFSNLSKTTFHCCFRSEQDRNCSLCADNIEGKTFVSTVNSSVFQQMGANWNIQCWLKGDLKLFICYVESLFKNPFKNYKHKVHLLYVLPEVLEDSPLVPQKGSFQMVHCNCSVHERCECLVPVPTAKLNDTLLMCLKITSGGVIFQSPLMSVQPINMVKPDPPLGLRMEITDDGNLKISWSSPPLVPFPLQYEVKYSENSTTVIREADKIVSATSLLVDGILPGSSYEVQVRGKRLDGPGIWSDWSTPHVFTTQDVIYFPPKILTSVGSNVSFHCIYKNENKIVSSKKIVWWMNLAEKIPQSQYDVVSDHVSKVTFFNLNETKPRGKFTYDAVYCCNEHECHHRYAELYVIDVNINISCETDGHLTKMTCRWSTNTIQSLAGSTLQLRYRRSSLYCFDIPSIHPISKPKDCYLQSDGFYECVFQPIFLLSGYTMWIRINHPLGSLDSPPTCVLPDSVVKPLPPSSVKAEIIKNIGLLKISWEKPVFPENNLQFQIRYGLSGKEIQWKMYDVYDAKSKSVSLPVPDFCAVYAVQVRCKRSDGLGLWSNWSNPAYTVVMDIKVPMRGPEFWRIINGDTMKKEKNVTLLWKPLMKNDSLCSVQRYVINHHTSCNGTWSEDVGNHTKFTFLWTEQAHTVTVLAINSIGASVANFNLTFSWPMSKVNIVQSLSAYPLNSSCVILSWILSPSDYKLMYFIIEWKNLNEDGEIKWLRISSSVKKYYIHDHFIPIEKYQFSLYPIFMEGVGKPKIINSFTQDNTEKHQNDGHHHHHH
Procedure: (§1) His-tagged ECDs were expressed and purified for each species and used for affinity analysis. A Protein A/G chip (Xantec, Cat #PAGHC200M) was utilized in this experiment with HBS-EP +0.01% BSA as running buffer. Antibodies were diluted to 1 μg/mL in running buffer and captured to a single flow cell on the chip surface. Each species of LEPR-ECD was diluted to 1000 nM in running buffer followed by 2-fold serial dilution. Each ligand concentration was injected over all flow cells at 100 L/min for 150 seconds followed by a 600 second dissociation phase. Regeneration was performed by injecting 10 mM glycine pH1.5 for 30 seconds at 10 μL/min. Data were analyzed in Biacore T200 Evaluation Software 3.1 by flow-cell 1 reference subtraction along with 0 nM blank subtraction. Data were fit globally using a “1:1 Binding” binding model to determine the on-rate (kₐ) and off-rate (kd) for each ligand. The affinity (KD) was calculated from the binding kinetics according to the relationship KD=kₐ/kd. Data reported as mean±standard deviation of experimental replicates.

[3] = biological target: T2, human LEPR, full length, on HEK293-STAT3Luc-hLepR1 cells (Homo sapiens, UniProt P48357 22-1165); test: flow cytometry on live HEK293-STAT3Luc-hLepR1 cells, AF647 anti-human IgG; average of 4 runs, SD 7.1
T2 construct: also called human LEPR on live cell surface
T2 sequence: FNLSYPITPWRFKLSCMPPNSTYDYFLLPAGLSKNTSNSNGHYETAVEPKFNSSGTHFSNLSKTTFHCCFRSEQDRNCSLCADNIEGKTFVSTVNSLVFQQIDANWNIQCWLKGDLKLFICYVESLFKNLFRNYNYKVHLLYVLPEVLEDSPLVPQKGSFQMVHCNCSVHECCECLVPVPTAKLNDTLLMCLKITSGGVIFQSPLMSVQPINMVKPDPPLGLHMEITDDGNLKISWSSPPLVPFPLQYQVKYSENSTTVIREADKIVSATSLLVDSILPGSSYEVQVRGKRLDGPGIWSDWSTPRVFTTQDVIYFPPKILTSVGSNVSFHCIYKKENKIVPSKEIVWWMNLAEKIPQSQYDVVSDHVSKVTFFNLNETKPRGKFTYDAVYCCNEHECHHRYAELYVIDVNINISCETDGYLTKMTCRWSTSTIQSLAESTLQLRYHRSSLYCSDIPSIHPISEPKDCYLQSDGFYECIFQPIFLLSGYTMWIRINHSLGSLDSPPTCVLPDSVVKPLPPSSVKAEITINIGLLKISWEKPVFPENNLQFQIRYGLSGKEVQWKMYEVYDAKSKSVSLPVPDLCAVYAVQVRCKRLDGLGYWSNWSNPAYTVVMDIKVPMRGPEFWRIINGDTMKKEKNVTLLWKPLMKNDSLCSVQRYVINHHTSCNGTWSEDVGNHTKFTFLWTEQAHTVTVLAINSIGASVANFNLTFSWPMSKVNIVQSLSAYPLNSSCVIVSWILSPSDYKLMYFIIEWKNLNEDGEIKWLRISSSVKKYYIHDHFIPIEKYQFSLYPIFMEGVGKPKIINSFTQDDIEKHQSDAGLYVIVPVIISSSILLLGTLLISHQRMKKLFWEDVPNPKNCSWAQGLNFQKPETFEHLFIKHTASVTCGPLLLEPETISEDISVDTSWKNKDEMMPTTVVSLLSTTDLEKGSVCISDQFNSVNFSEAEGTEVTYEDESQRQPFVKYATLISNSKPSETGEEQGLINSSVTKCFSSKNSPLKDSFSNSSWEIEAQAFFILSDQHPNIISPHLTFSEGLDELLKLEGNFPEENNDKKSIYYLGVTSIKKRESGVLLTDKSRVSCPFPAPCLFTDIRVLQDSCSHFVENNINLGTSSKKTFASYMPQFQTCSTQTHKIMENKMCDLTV
Procedure: (§2) Cells were incubated in blocking buffer for 10 mins at room temperature. After one rinse with PBS, cells were transferred to U-bottom 96-well plate at 200 μL and 0.2˜0.26^e6 cells/well. […] Cells were then incubated with 30 μL/well of antibodies diluted in flow buffer at 1000 nM as high dose followed by 9-point dose response including 5-fold dilutions not including 0 (totaling 9 concentrations for each Antibody) for 30 minutes at 4° C. in dark.

[4] = biological target: T3, cynomolgus monkey LEPR, full length, on HEK293-STAT3Luc-cmLepR2 cells (Macaca fascicularis); test: flow cytometry on live HEK293-STAT3Luc-cmLepR2 cells, AF647 anti-human IgG; average of 4 runs, SD 1.0
T3 construct: whole, on cells; also called cyno-LEPR; Macaca fascicularis LEPR
Procedure: as §2

CYNO LEPR-ECD-His [5] = biological target: T1, CYNO LEPR-ECD-His; test: SPR (Biacore T200), antibody captured on Protein A/G chip, His-tagged LEPR-ECD as analyte, 1:1 fit; mean n=4, SD 1.7E-8
Procedure: as §1

[6] = biological target: T2, human LEPR, full length, on …; test: flow cytometry on live HEK293-STAT3Luc-hLepR1 cells, AF647 anti-human IgG; average of 4 runs, SD 1.0
Procedure: as §2

- Peak Width [1]: 2.7 min
- Kd (CYNO LEPR-ECD-His [2]): 19 nM
B1: Antibody A (antibody, human IgG1, kappa, L234A L235A)
heavy: EVQLLESGGGLVQPGGSLRLSCAASGFTFSSFAMSWVRQAPGKGLEWVSAISGSGGSTYSADSVRGRFTISRDNSKNTLYLQMNSLRAEDTAVYYCAKDQGDWDFLFDYWGQGTLVTVSSASTKGPSVFPLAPSSKSTSGGTAALGCLVKDYFPEPVTVSWNSGALTSGVHTFPAVLQSSGLYSLSSVVTVPSSSLGTQTYICNVNHKPSNTKVDKRVEPKSCDKTHTCPPCPAPEAAGGPSVFLFPPKPKDTLYITREPEVTCVVVSVSHEDPEVKFNWYVDGVEVHNAKTKPREEQYNSTYRVVSVLTVLHQDWLNGKEYKCKVSNKALPAPIEKTISKAKGQPREPQVYTLPPSREEMTKNQVSLTCLVKGFYPSDIAVEWESNGQPENNYKTTPPVLDSDGSFFLYSKLTVDKSRWQQGNVFSCSVMHEALHNHYTQKSLSLSPGK
light: DIQMTQSPSFLSASVGDRVTITCRASQGISSSLAWYQQKPGKAPKLLIYTASTLQSGVPSRFSGSGSGTEFTLTISSLQPEDFATYYCQQLIYYPFTFGQGTKVEIKRTVAAPSVFIFPPSDEQLKSGTASVVCLLNNFYPREAKVQWKVDNALQSGNSQESVTEQDSKDSTYSLSSTLTLSKADYEKHKVYACEVTHQGLSSPVTKSFNRGEC
notes: IgG1 mAb

- EC50 [3]: 13.6 nM
- EC50 [4]: 1.11 nM
- Kd (CYNO LEPR-ECD-His [5]): 32 nM
B2: Antibody B (antibody, human IgG1, kappa, L234A L235A, V domains shown)
VH: EVQLLESGGGLVQPGGSLRLSCAASGFTFSSFAMSWVRQAPGKGLEWVSAISGSGGSTYSADSVRGRFTISRDNSKNTLYLQMNSLRAEDTAVYYCAKDQGDWDFLFDYWGQGTLVTVSS
VL: DIQMTQSPSFLSASVGDRVTITCRVSQGISSSLAWYQQKPGKAPKLLIYTASTLQSGVPSRFSGSGSGTEFTLTISSLQPEDFATYYCQQLNYYPFTFGQGTKVEIKR

- EC50 [6]: 1.33 nM
B3: Antibody C (antibody, human IgG1, kappa, L234A L235A, V domains shown)
VH: EVQLLESGGGLVQPGGSLRLSCAASGFTFSSFAMSWVRQAPGKGLEWVSAISGSGGSTYSADSVRGRFTISRDNSKNTLYLQMNSLRAEDTAVYYCAKDQGDWDFLFDYWGQGTLVTVSS
VL: DIQMTQSPSFLSASVGDRVTITCRASQGISSSLAWYQQKPGKAPKLLIYTASTLQSGVPSRFSGSGSGTEFTLTISSLQPEDFATYYCQQLNYYPFSFGQGTKVEIKR
